Data: patent publication US20260225001A1, “COMPOSITIONS AND METHODS FOR PURIFYING BIOLOGICAL FLUIDS” (North Carolina State University, priority 2023, published 2026)
Blank lines part the entries; values can stand above or below the molecule they belong to.

Key:
Pichia pastoris HCPs = assay: Contribution of individual PichiaGuard peptides to HCP binding (flow-through, BCA, proteomics, IgG incubation); conditions: for number of HCPs bound (HCP binding density): FIG. 13, proteomics; for coverage of HCPs: FIG. 13, by theoretical isoelectric point; for number of HCP species bound compared with PichiaGuard: FIGS. 14A-14H
Excerpt: Within HCP binding, it was observed that sequences 5 through 8 display the highest capacity for HCPs, followed by 4, 3 and 1. The same sequences in order also show low to high IgG binding potential, generating a qualitative understanding of binding capacity (Y-axis) and binding selectivity (HCP/IgG).
The color spectrum diverging from blue to red indicates an increasing number of HCPs with specific molecular weight (Y-axis) and theoretical isoelectric points (X-axis) captured by each peptide.
FIGS. 14A-14H compare the total number of identified HCPs bound by individual peptides with that of the PichiaGuard ensemble.
Analysis of PichiaGuard Peptide Contributions to HCP Binding: Contributions of individual peptides comprising PichiaGuard were discerned in terms of their binding to Pichia pastoris HCPs “by-sequence”. These studies comprised of the flow-through purification of null Pichia culture fluids (no recombinant protein), subsequently purified using chromatographic columns packed with individual peptides. The fluids were purified at a 1-minute residence time and flow-through fractions were collected across time for the identification of bound and unbound HCPs (see chromatograms in FIG. 11A). These fractions were analyzed using total protein quantification assay (BCA) and compared with that of the load sample to compute HCP log-reduction value for each individual sequence (FIG. 11B, left). Simultaneously, 25 μL of each peptide was incubated with a range of IgG concentrations (0.1-30 mg/mL resin) overnight to understand their binding propensities to the competitor molecules under non-competitive conditions. Protein content in the supernatant was estimated and compared to the initial concentrations to observe IgG binding (FIG. 11B, right). All flow-through fractions were analyzed through the proteomics workflow (as described further herein) to identify unbound HCPs and overall, correlate peptide and HCP properties. Briefly, label free quantification was performed to identify HCPs within each flow-through fraction and compared to the feed sample used within the experiment. The data was first grouped as a function of time for each peptide and data filters were applied based on the abundance ratio to label bound and unbound HCPs, at different confidence levels based on the number of fractions they were identified in. Concurrently, the “Peptides” package within RStudio was utilized to calculate sequence-based properties of each HCP such as polarity, H-bonding, hydrophobicity and charge.

[1] = molecular target: K. phaffii host cell proteins (HCPs); assay: flow-through chromatography, acetate buffer, RT 1 min, up to 40 CVs
[2] = molecular target: K. phaffii host cell proteins (HCPs); assay: flow-through chromatography, acetate buffer, RT 1 min, up to 10 CVs
[3] = molecular target: K. phaffii host cell proteins (HCPs); assay: flow-through chromatography, DOE study, phosphate buffer
[4] = molecular target: K. phaffii host cell proteins (HCPs); assay: flow-through chromatography, DOE study, acetate buffer
[5] = molecular target: K. phaffii host cell proteins (HCPs); assay: flow-through purification of scFv perfusate, Pichia pastoris HCP ELISA; 150 CV load
[6] = molecular target: K. phaffii host cell proteins (HCPs); assay: flow-through chromatography, 30th CV mark
[7] = molecular target: K. phaffii host cell proteins (HCPs); assay: flow-through affinity chromatography
[8] = molecular target: K. phaffii host cell proteins (HCPs); assay: flow-through chromatography, around the 30th CV
[9] = molecular target: K. phaffii host cell proteins (HCPs); assay: flow-through chromatography of ScFv13R4 harvest, 20 mM sodium acetate pH 5.7, RT 1 min; protein loading 3.90 g/L resin
[10] = molecular target: K. phaffii host cell proteins (HCPs); assay: flow-through chromatography of ScFv13R4 harvest, 20 mM sodium acetate pH 5.7, RT 1 min; protein loading 14.40 g/L resin
[11] = molecular target: K. phaffii host cell proteins (HCPs); assay: flow-through chromatography, acetate buffer, RT 1 min, up to 20 CVs
[12] = molecular target: K. phaffii host cell proteins (HCPs); assay: flow-through chromatography, DOE study
[13] = molecular target: K. phaffii host cell proteins (HCPs); assay: static binding, Langmuir isotherm fit, HCPs treated as a single species; phosphate buffer pH 7.1-7.2; pH 7.15
[14] = molecular target: K. phaffii host cell proteins (HCPs); assay: flow-through chromatography, RT 1 min
[15] = molecular target: K. phaffii host cell proteins (HCPs); assay: static binding, Langmuir isotherm fit, HCPs treated as a single species; acetate buffer pH 5.7
[16] = molecular target: K. phaffii host cell proteins (HCPs); assay: flow-through chromatography, acetate buffer, RT 1 min, up to 100 CVs
[17] = molecular target: K. phaffii host cell proteins (HCPs); assay: flow-through chromatography of ScFv13R4 harvest, 20 mM sodium acetate pH 5.7, RT 1 min; protein loading 2.10 g/L resin
[18] = molecular target: K. phaffii host cell proteins (HCPs); assay: flow-through chromatography of ScFv13R4 harvest, 20 mM sodium acetate pH 5.7, RT 1 min; protein loading 7.50 g/L resin
[19] = molecular target: K. phaffii host cell proteins (HCPs); assay: flow-through chromatography of ScFv13R4 harvest, nanoLC-MS/MS
[20] = molecular target: K. phaffii host cell proteins (HCPs); assay: flow-through chromatography of mAb harvest, acetate buffer, load up to 15 mg/mL
[21] = molecular target: K. phaffii host cell proteins (HCPs); assay: static binding, Langmuir isotherm fit; acetate buffer pH 5.7
[22] = molecular target: K. phaffii host cell proteins (HCPs); assay: static binding, Langmuir isotherm fit; phosphate buffer pH 7.1-7.2
[23] = molecular target: K. phaffii host cell proteins (HCPs); assay: flow-through chromatography of ScFv13R4 harvest, 20 mM sodium acetate pH 5.7, RT 1 min; protein loading 6.30 g/L resin
[24] = molecular target: K. phaffii host cell proteins (HCPs); assay: flow-through chromatography of ScFv13R4 harvest, 20 mM sodium acetate pH 5.7, RT 1 min; protein loading 5.10 g/L resin
[25] = molecular target: K. phaffii host cell proteins (HCPs); assay: flow-through chromatography of ScFv13R4 harvest, 20 mM sodium acetate pH 5.7, RT 1 min; protein loading 9.30 g/L resin

Molecule: YHKH [Peptide 1]
- coverage of HCPs (Pichia pastoris HCPs): broad coverage of HCPs with varying pI
- number of HCPs bound (HCP binding density) (Pichia pastoris HCPs): High HCP binding densities
- number of HCP species bound compared with PichiaGuard (Pichia pastoris HCPs): binding most species

Molecule: RYWK [Peptide 2]
- selectivity (HCP vs IgG binding) (Pichia pastoris HCPs; FIG. 14I, non-competitive conditions): poor selectivity

Molecule: CHO LigaGuard™ resin
- cumulative HCP LRV [1]: 0.45 to 0.55 LRV
- cumulative HCP LRV [2]: 1 to 1.5 LRV

Molecule: EWAK [Peptide 4]
- coverage of HCPs (Pichia pastoris HCPs): broad coverage of HCPs with varying pI
- number of HCPs bound (HCP binding density) (Pichia pastoris HCPs): High HCP binding densities
- number of HCP species bound compared with PichiaGuard (Pichia pastoris HCPs): binding most species

Molecule: VWHH [Peptide 7]
- coverage of HCPs (Pichia pastoris HCPs): broad coverage of HCPs with varying pI
- number of HCP species bound compared with PichiaGuard (Pichia pastoris HCPs): binding most species

B1: PichiaGuard-TP50F resin (peptide)
peptide 1: YHKH
peptide 2: RYWK
peptide 3: RWYQ
peptide 4: EWAK
peptide 5: QEKK
peptide 6: WYKK
peptide 7: VWHH
peptide 8: RYWV
modifications: bound to aminated Toyopearl HW-50F resin
- HCP LRV [3]: 0.8 to 1 LRV
- HCP LRV [4]: 0.7 to 0.9 LRV

B2: PichiaGuard (peptide)
peptide 1: YHKH
peptide 2: RYWK
peptide 3: RWYQ
peptide 4: EWAK
peptide 5: QEKK
peptide 6: WYKK
peptide 7: VWHH
peptide 8: RYWV
modifications: bound to a chromatographic resin; which Toyopearl base is not said at these places
- HCP removal (logs) [5]: 1.7 logs
- load at saturation as % of Qmax [6]: 75 % of Qmax
- load ratio at saturation (g of HCPs per L of resin) [6]: 18
- % reduction of HCPs and hcDNA [7]: < 99%
- cumulative LRV at plateau [8]: 1 LRV
- fractional LRV [8]: < 0.5 LRV

The next lines start with the values.

- number of HCPs bound (HCP binding density) (Pichia pastoris HCPs): least number of HCPs
Molecule: RYWV [Peptide 8]

- number of HCP species bound compared with PichiaGuard (Pichia pastoris HCPs): binding most species
Molecule: WYKK [Peptide 6]

- coverage of HCPs (Pichia pastoris HCPs): broad coverage of HCPs with varying pI
Molecule: QEKK [Peptide 5]

- cumulative HCP LRV [9]: 2.55 LRV
- cumulative HCP LRV [10]: 1.01 LRV
- cumulative HCP LRV [11]: 1.5 to 2 LRV
- HCP LRV [12]: 3 LRV
- Kd [13]: 30 µM
- fold change of HCP clearance activity, phosphate buffer against acetate buffer [14]: 10 fold lower
- Kd [15]: 17.5 µM
- cumulative HCP LRV [16]: 1.3 LRV
- cumulative HCP LRV [17]: 3 LRV
- cumulative HCP LRV [18]: 1.34 LRV
- % of HCPs completely removed [19]: > 84%
- % of HCPs partially cleared [19]: 15%
- overall HCP LRV [20]: 1.15 LRV
- Qmax (maximum binding capacity) (mg HCP per mL resin) [21]: 25.4
- Qmax (maximum binding capacity) (mg HCP per mL resin) [22]: 18.3
- cumulative HCP LRV [23]: 1.55 LRV
- cumulative HCP LRV [24]: 1.92 LRV
- cumulative HCP LRV [2]: > 2 LRV
- cumulative HCP LRV [25]: 1.14 LRV
B3: PichiaGuard-TP650M resin (peptide)
peptide 1: YHKH
peptide 2: RYWK
peptide 3: RWYQ
peptide 4: EWAK
peptide 5: QEKK
peptide 6: WYKK
peptide 7: VWHH
peptide 8: RYWV
modifications: bound to Toyopearl AF-Amino-650M resin
